The record followed here is US20110262447A1.

This experiment deals with wild-type p53 core domain (human) (UniProt P04637). Briefly: ELISA, plates coated with recombinant core domain. A general note: An ELISA detects its analyte on a solid surface through an enzyme-linked reagent.
Sequence of wild-type p53 core domain (human) (P04637 94-312): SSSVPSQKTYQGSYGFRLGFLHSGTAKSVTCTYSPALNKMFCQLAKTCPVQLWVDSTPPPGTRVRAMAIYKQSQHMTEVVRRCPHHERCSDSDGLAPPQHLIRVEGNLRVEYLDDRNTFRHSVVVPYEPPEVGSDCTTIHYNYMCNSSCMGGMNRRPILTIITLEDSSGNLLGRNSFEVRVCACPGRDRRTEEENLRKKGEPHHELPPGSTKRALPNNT

Turning to mAb 1620 (antibody), the O.D. turned out to be 1.2 O.D.
